Source: publication PMC5711802, “Conservation of folding and association within a family of spidroin N-terminal domains” (Scientific Reports, 2017)
Where a chain is given by its changes, count along the chain named. In names and notes the source's numbering stands.

Key:
[1] = target: MaSp1 NTD Q50C-AttoOxa11, E. australis Q50C (UniProt Q05H60); test: stopped-flow AttoOxa11 fluorescence, chasing experiment (dissociation kinetics); conditions: pH 6.0; 298 K; I adjusted to 60 mM using potassium chloride; 20 mM MES pH 6.0
[2] = target: MaSp1 N-terminal domain (NTD), L. hesperus (UniProt A6YIY1); test: Kd calculated by the authors from the stopped-flow rate constants (kdiss from C4 / kass from C3); conditions: pH 6.0; 298 K; about 60 mM (KCl) for kdiss; not stated exactly for kass; 20 mM MES pH 6.0
[3] = target: MaSp1 N-terminal domain (NTD), L. hesperus (UniProt A6YIY1); test: stopped-flow Trp fluorescence, pH jump (association kinetics); conditions: pH 6.0; 298 K; final value not stated (sample at I 150 mM KCl diluted 1:11 into 20 mM MES pH 6.0); 20 mM MES pH 6.0 after mixing (start: 10 mM MES pH 7.0)
[4] = target: MaSp1 N-terminal domain (NTD), N. clavipes (UniProt B5SYS5); test: Kd calculated by the authors from the stopped-flow rate constants (kdiss from C4 / kass from C3); conditions: pH 6.0; 298 K; about 60 mM (KCl) for kdiss; not stated exactly for kass; 20 mM MES pH 6.0
[5] = target: MaSp1 N-terminal domain (NTD), N. clavipes (UniProt B5SYS5); test: stopped-flow Trp fluorescence, pH jump (association kinetics); conditions: pH 6.0; 298 K; final value not stated (sample at I 150 mM KCl diluted 1:11 into 20 mM MES pH 6.0); 20 mM MES pH 6.0 after mixing (start: 10 mM MES pH 7.0)
[6] = target: MaSp1 N-terminal domain (NTD), L. geometricus; test: Kd calculated by the authors from the stopped-flow rate constants (kdiss from C4 / kass from C3); conditions: pH 6.0; 298 K; about 60 mM (KCl) for kdiss; not stated exactly for kass; 20 mM MES pH 6.0
[7] = target: MaSp1 N-terminal domain (NTD), L. geometricus; test: stopped-flow Trp fluorescence, pH jump (association kinetics); conditions: pH 6.0; 298 K; final value not stated (sample at I 150 mM KCl diluted 1:11 into 20 mM MES pH 6.0); 20 mM MES pH 6.0 after mixing (start: 10 mM MES pH 7.0)
[8] = target: N-terminal domain (NTD) of major ampullate spidroin 1 (MaSp1) from Latrodectus hesperus (Latrodectus hesperus); test: stopped-flow tryptophan fluorescence (association kinetics); monomer to dimer; monomeric NTD in 10 mM MES pH 7.0, I 150 mM (KCl), mixed 1:11 into 20 mM MES pH 6.0; three concentrations between 0.1 and 1 uM; 298 K; fit to a kinetic model of dimerization
[9] = target: N-terminal domain (NTD) of major ampullate spidroin 1 (MaSp1) from Latrodectus hesperus (Latrodectus hesperus); test: SEC-MALS; dimer conditions: 20 mM MES pH 6.0, ionic strength 60 mM (KCl); 100 uL at 5 mg/mL on Superdex-75 HR10/300, 0.5 ml/min
[10] = target: N-terminal domain (NTD) of major ampullate spidroin 1 (MaSp1) from Latrodectus hesperus (Latrodectus hesperus); test: stopped-flow tryptophan fluorescence + other: stopped-flow AttoOxa11 fluorescence chasing experiment; dimer to monomers; Kd calculated as k diss/k ass from the two kinetic experiments; pH 6.0, 298 K
[11] = target: MaSp1 NTD Q50C-AttoOxa11, N. clavipes Q50C (UniProt B5SYS5); test: stopped-flow AttoOxa11 fluorescence, chasing experiment (dissociation kinetics); conditions: pH 6.0; 298 K; I adjusted to 60 mM using potassium chloride; 20 mM MES pH 6.0
[12] = target: N-terminal domain (NTD) of major ampullate spidroin 1 (MaSp1) from Nephila clavipes (Nephila clavipes); test: stopped-flow tryptophan fluorescence (association kinetics); monomer to dimer; monomeric NTD in 10 mM MES pH 7.0, I 150 mM (KCl), mixed 1:11 into 20 mM MES pH 6.0; three concentrations between 0.1 and 1 uM; 298 K; fit to a kinetic model of dimerization
[13] = target: N-terminal domain (NTD) of major ampullate spidroin 1 (MaSp1) from Nephila clavipes (Nephila clavipes); test: SEC-MALS; dimer conditions: 20 mM MES pH 6.0, ionic strength 60 mM (KCl); 100 uL at 5 mg/mL on Superdex-75 HR10/300, 0.5 ml/min
[14] = target: N-terminal domain (NTD) of major ampullate spidroin 1 (MaSp1) from Nephila clavipes (Nephila clavipes); test: stopped-flow tryptophan fluorescence + other: stopped-flow AttoOxa11 fluorescence chasing experiment; dimer to monomers; Kd calculated as k diss/k ass from the two kinetic experiments; pH 6.0, 298 K
[15] = target: MaSp1 NTD Q50C-AttoOxa11, L. hesperus Q50C (UniProt A6YIY1); test: stopped-flow AttoOxa11 fluorescence, chasing experiment (dissociation kinetics); conditions: pH 6.0; 298 K; I adjusted to 60 mM using potassium chloride; 20 mM MES pH 6.0
[16] = target: AttoOxa11-modified Q50C mutant of the MaSp1 NTD from Euprosthenops australis (Euprosthenops australis); test: stopped-flow AttoOxa11 fluorescence chasing experiment (dissociation kinetics); dimer to monomers; 0.1 uM dimeric AttoOxa11-modified NTD in 20 mM MES pH 6.0, I 60 mM (KCl), chased with 9 uM non-modified NTD in the same buffer; 0.3 mg/mL BSA and 0.05% Tween-20; 298 K; mono-exponential fit
[17] = target: MaSp1 NTD Q50C-AttoOxa11, L. geometricus Q50C; test: stopped-flow AttoOxa11 fluorescence, chasing experiment (dissociation kinetics); conditions: pH 6.0; 298 K; I adjusted to 60 mM using potassium chloride; 20 mM MES pH 6.0
[18] = target: MaSp1 N-terminal domain (NTD), E. australis (UniProt Q05H60); test: Kd calculated by the authors from the stopped-flow rate constants (kdiss from C4 / kass from C3); conditions: pH 6.0; 298 K; about 60 mM (KCl) for kdiss; not stated exactly for kass; 20 mM MES pH 6.0
[19] = target: MaSp1 N-terminal domain (NTD), E. australis (UniProt Q05H60); test: stopped-flow Trp fluorescence, pH jump (association kinetics); conditions: pH 6.0; 298 K; final value not stated (sample at I 150 mM KCl diluted 1:11 into 20 mM MES pH 6.0); 20 mM MES pH 6.0 after mixing (start: 10 mM MES pH 7.0)
[20] = target: the molecule itself; test: stopped-flow AttoOxa11 fluorescence chasing experiment (dissociation kinetics); dimer to monomers; 0.1 uM dimeric AttoOxa11-modified NTD in 20 mM MES pH 6.0, I 60 mM (KCl), chased with 9 uM non-modified NTD in the same buffer; 0.3 mg/mL BSA and 0.05% Tween-20; 298 K; mono-exponential fit
[21] = target: the molecule itself; test: SEC-MALS; dimer conditions: 20 mM MES pH 6.0, ionic strength 60 mM (KCl); 100 uL at 5 mg/mL on Superdex-75 HR10/300, 0.5 ml/min
[22] = target: the molecule itself; test: stopped-flow tryptophan fluorescence + other: stopped-flow AttoOxa11 fluorescence chasing experiment; dimer to monomers; Kd calculated as k diss/k ass from the two kinetic experiments; pH 6.0, 298 K
[23] = target: the molecule itself; test: stopped-flow tryptophan fluorescence (association kinetics); monomer to dimer; monomeric NTD in 10 mM MES pH 7.0, I 150 mM (KCl), mixed 1:11 into 20 mM MES pH 6.0; three concentrations between 0.1 and 1 uM; 298 K; fit to a kinetic model of dimerization
[24] = target: T1, N-terminal domain (NTD) of major ampullate spidroin 1 (MaSp1) from Euprosthenops australis (Euprosthenops australis), Q05H60; test: stopped-flow tryptophan fluorescence + other: stopped-flow AttoOxa11 fluorescence chasing experiment; dimer to monomers; Kd calculated as k diss/k ass from the two kinetic experiments; pH 6.0, 298 K; conditions: remark: other sources report otherwise
T1 chain: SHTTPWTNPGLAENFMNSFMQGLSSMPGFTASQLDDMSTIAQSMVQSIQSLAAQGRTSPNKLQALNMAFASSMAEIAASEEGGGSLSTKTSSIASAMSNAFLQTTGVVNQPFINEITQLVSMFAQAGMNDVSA

[25] = target: T1, N-terminal domain (NTD) of major …; test: SEC-MALS; dimer conditions: 20 mM MES pH 6.0, ionic strength 60 mM (KCl); 100 uL at 5 mg/mL on Superdex-75 HR10/300, 0.5 ml/min; conditions: remark: other sources report otherwise
[26] = target: T1, N-terminal domain (NTD) of major …; test: stopped-flow tryptophan fluorescence (association kinetics); monomer to dimer; monomeric NTD in 10 mM MES pH 7.0, I 150 mM (KCl), mixed 1:11 into 20 mM MES pH 6.0; three concentrations between 0.1 and 1 uM; 298 K; fit to a kinetic model of dimerization; conditions: remark: other sources report otherwise

Molecule: MaSp1 NTD Q50C-AttoOxa11, E. australis Q50C
- k diss [1]: 1.68 s⁻¹

Molecule: MaSp1 N-terminal domain (NTD), L. hesperus
- K d [2]: 0.14 10^-9 M
- k ass (10^9 M^-1 s^-1) [3]: 2.19

Molecule: MaSp1 N-terminal domain (NTD), N. clavipes
- K d [4]: 0.73 10^-9 M
- k ass (10^9 M^-1 s^-1) [5]: 2.58

Molecule: MaSp1 N-terminal domain (NTD), L. geometricus
- K d [6]: 0.46 10^-9 M
- k ass (10^9 M^-1 s^-1) [7]: 1.39

Molecule: N-terminal domain (NTD) of major ampullate spidroin 1 (MaSp1) from Latrodectus hesperus (domain or fragment)
- kon [8]: 2.19e+09 M⁻¹ s⁻¹
- stoichiometry N [9]: 2
- K d [10]: 0.14 nM

Molecule: MaSp1 NTD Q50C-AttoOxa11, N. clavipes Q50C
- k diss [11]: 1.88 s⁻¹

Molecule: N-terminal domain (NTD) of major ampullate spidroin 1 (MaSp1) from Nephila clavipes (domain or fragment)
- kon [12]: 2.58e+09 M⁻¹ s⁻¹
- stoichiometry N [13]: 2
- K d [14]: 0.73 nM

Molecule: MaSp1 NTD Q50C-AttoOxa11, L. hesperus Q50C
- k diss [15]: 0.31 s⁻¹

Molecule: AttoOxa11-modified Q50C mutant of the MaSp1 NTD from Euprosthenops australis (domain or fragment)
- koff [16]: 1.68 s⁻¹

Molecule: MaSp1 NTD Q50C-AttoOxa11, L. geometricus Q50C
- k diss [17]: 0.64 s⁻¹

Molecule: MaSp1 N-terminal domain (NTD), E. australis
- K d [18]: 1.07 10^-9 M
- k ass (10^9 M^-1 s^-1) [19]: 1.58

B1: AttoOxa11-modified Q50C mutant of the MaSp1 NTD from Nephila clavipes (domain or fragment)
chain: PWSSTELADAFINAFMNEAGRTGAFTADQLDDMSTIGDTIKCAMDKMARSNKSSKGKLQALNMAFASSMAEIAAVEQGGLSVDAKTNAIADSLNSAFYQTTGAANPQFVNEIRSLINMFAQSSAN
modifications: AttoOxa11 (maleimide derivative) on the cysteine at sequence position 50
- koff [20]: 1.88 ± 0.05 s⁻¹

B2: AttoOxa11-modified Q50C mutant of the MaSp1 NTD from Latrodectus hesperus (domain or fragment)
chain: PWSSKANADAFINSFISAASNTGSFSQDQMEDMSLIGNTLMCAMDNMGGRITPSKLQALDMAFASSVAEIAASEGGDLGVTTNAIADALTSAFYQTTGVVNSRFISEIRSLIGMFAQASAN
modifications: AttoOxa11 (maleimide derivative) on the cysteine at sequence position 50
- koff [20]: 0.31 ± 0.02 s⁻¹

B3: N-terminal domain (NTD) of major ampullate spidroin 1 (MaSp1) from Latrodectus geometricus (domain or fragment)
chain: B2 chain with A18S, S20Q, E31D, C42T, S102N, G113S
- stoichiometry N [21]: 2
- Kd [22]: 0.46 nM
- kon [23]: 1.39e+09 M⁻¹ s⁻¹

B4: AttoOxa11-modified Q50C mutant of the MaSp1 NTD from Latrodectus geometricus (domain or fragment)
chain: B2 chain with A18S, S20Q, E31D, S102N, G113S
modifications: AttoOxa11 (maleimide derivative) on the cysteine at sequence position 50
- koff [20]: 0.64 ± 0.02 s⁻¹

B5: N-terminal domain (NTD) of major ampullate spidroin 1 (MaSp1) from Euprosthenops australis, Q05H60 24-156 (domain or fragment)
chain: T1 chain
- K d [24]: 1.07 nM
- stoichiometry N [25]: 2
- kon [26]: 1.58e+09 M⁻¹ s⁻¹
